B1: Myosin regulatory light polypeptide 9 (Homo sapiens), P24844 (parent)
chain: MSSKRAKAKTTKKRPQRATSNVFAMFDQSQIQEFKEAFNMIDQNRDGFIDKEDLHDMLASLGKNPTDEYLEGMMSEAPGPINFTMFLTMFGEKLNGTDPEDVIRNAFACFDEEASGFIHEDHLRELLTTMGDRFTDEEVDEMYREAPIDKKGNFNYVEFTRILKHGAKDKDD
B2: Coiled-coil domain-containing protein 141 (Homo sapiens), Q6ZP82-1 (parent)
chain: MSSQGSPSVALSTTTVSSVAVQAGDSKIVIAVIKCGKWVQLQLAESQPNLLEIGSSQDETKKLLHDHELLLAKLKALEDRVWELLQEADKTAEENKDQSQVYDAMAETLGEAWAALVSMLERRTELLRLTSEFFENALEFAIKIDQAEDFLQNTHEFESAESLKSLLQLHEHHTKELLERSLALLNKSQQLTDFIEKFKCEGPNVNPELTQGAHSSCLKVDRLLELLQDRRRQLDKYLKQQWQELSQVLQICQWDQQENQVTCWFQKTIRNLQEQSLGSSLSDNEDRIHKQEELIIKAKEWNSAVEKLKSEALRILLSKDYVEKEHLQLSHQKLSQLQEEFGQLMVERNTWLKKANEFFNSANKAFDVLGRVEAYLKLLKSEGLSLAVLAVRHEELHRKIKDCTTDALQKGQTLISQVDSCSSQVSGIHEMMGCIKRRVDHLTEQCSAHKEYALKKQQLTASVEGYLRKVEMSIQKISPVLSNAMDVGSTRSESEKILNKYLELDIQAKETSHELEAAAKTMMEKNEFVSDEMVSLSSKARWLAEELNLFGQSIDYRSQVLQTYVAFLKSSEEVEMQFQSLKEFYETEIPQKEQDDAKAKHCSDSAEKQWQLFLKKSFITQDLGLEFLNLINMAKENEILDVKNEVYLMKNTMENQKAEREELSLLRLAWQLKATESKPGKQQWAAFKEQLKKTSHNLKLLQEALMPVSALDLGGSLQFILDLRQKWNDMKPQFQQLNDEVQYIMKESEELTGRGAPVKEKSQQLKDLIHFHQKQKERIQDYEDILYKVVQFHQVKEELGRLIKSRELEFVEQPKELGDAHDVQIHLRCSQEKQARVDHLHRLALSLGVDIISSVQRPHCSNVSAKNLQQQLELLEEDSMKWRAKAEEYGRTLSRSVEYCAMRDEINELKDSFKDIKKKFNNLKFNYTKKNEKSRNLKALKYQIQQVDMYAEKMQALKRKMEKVSNKTSDSFLNYPSDKVNVLLEVMKDLQKHVDDFDKVVTDYKKNLDLTEHFQEVIEECHFWYEDASATVVRVGKYSTECKTKEAVKILHQQFNKFIAPSVPQQEERIQEATDLAQHLYGLEEGQKYIEKIVTKHKEVLESVTELCESLTELEEKLKQGDVLKMNPNLEDFHYDYIDLLKEPAKNKQTIFNEERNKGQVQVADLLGINGTGEERLPQDLKVSTDKEGGVQDLLLPEDMLSGEEYECVSPDDISLPPLPGSPESPLAPSDMEVEEPVSSSLSLHISSYGVQAGTSSPGDAQESVLPPPVAFADACNDKRETFSSHFERPYLQFKAEPPLTSRGFVEKSTALHRISAEHPESMMSEVHERALQQHPQAQGGLLETREKMHADNNFTKTQDRLHASSDAFSGLRFQSGTSRGYQRQMVPREEIKSTSAKSSVVSLADQAPNFSRLLSNVTVMEGSPVTLEVEVTGFPEPTLTWWVAYNDKP
partner: B1 chain
B3: Coiled-coil domain-containing protein 141 (Homo sapiens), Q6ZP82-1 (parent)
chain: B2 chain
partner: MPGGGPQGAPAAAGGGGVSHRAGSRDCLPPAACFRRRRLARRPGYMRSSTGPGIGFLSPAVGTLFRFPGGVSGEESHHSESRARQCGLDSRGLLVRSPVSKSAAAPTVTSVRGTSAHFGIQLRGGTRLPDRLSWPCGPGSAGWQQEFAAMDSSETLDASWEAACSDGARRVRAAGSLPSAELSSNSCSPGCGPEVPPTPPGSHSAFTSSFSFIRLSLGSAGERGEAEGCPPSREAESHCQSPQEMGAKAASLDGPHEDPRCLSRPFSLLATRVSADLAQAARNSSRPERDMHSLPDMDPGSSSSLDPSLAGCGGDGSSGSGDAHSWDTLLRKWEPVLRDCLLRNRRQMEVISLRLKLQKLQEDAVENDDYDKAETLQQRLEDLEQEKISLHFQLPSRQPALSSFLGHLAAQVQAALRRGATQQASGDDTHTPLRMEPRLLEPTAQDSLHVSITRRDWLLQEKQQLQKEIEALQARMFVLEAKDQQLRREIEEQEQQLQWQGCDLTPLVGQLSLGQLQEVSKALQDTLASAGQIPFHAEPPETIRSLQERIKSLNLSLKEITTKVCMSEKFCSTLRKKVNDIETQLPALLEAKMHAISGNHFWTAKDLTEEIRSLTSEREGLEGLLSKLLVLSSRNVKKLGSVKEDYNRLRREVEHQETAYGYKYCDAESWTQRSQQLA

Variants of: B1
Conditions: with cc141_mouse Ccdc141, E9Q8Q6
Chain of cc141_mouse Ccdc141, E9Q8Q6 (E9Q8Q6 whole entry): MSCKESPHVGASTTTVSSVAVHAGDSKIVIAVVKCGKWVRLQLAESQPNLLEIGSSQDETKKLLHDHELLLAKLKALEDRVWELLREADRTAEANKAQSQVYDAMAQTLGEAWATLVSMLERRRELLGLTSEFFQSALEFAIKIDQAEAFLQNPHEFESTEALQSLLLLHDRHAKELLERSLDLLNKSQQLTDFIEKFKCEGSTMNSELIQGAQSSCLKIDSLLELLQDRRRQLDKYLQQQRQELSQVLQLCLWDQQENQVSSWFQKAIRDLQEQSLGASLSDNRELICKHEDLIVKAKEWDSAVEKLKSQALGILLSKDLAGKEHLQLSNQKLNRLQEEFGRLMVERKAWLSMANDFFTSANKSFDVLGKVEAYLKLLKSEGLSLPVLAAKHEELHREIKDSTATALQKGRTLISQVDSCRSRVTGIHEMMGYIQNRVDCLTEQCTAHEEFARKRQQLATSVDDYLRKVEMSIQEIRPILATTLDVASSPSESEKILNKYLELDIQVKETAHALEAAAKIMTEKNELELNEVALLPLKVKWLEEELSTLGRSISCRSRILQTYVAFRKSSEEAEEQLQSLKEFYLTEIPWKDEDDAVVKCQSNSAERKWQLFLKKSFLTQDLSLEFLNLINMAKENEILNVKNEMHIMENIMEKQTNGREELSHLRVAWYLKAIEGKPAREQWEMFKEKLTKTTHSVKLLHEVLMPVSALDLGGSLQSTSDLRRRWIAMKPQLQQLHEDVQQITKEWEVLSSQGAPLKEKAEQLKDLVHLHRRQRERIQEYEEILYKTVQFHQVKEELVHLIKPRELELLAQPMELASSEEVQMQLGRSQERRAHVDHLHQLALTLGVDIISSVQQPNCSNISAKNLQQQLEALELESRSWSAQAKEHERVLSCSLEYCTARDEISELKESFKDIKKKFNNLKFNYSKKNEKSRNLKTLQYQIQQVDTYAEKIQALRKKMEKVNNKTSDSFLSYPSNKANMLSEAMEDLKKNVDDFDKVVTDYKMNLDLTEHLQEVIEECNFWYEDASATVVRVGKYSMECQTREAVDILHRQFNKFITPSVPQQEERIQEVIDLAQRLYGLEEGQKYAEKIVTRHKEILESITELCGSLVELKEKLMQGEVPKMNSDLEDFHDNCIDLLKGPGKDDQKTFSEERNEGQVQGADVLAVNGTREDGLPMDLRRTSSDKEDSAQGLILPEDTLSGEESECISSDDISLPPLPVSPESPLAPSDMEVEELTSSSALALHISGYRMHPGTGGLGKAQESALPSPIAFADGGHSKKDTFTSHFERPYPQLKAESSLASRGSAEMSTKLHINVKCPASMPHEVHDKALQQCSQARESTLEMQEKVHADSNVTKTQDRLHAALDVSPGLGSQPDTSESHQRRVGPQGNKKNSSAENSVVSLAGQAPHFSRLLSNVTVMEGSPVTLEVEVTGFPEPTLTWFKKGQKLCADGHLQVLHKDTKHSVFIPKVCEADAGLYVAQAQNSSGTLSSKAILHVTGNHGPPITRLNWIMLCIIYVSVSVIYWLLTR

Row | Variant | effect of a mutation on the interaction
1 | T19D;S20D | increasing interaction strength
2 | T19A;S20A | disrupting interaction strength

Variants of: B2
Conditions: with myl9_human MYL9, P24844

Row | Variant | effect of a mutation on the interaction
3 | R828W | disrupting interaction strength

Variants of: B3
Conditions: with DISC1, Q9NRI5-3

Row | Variant | effect of a mutation on the interaction
4 | R828W | with no effect

Source: IntAct's records for PubMed 20956536
